Laboratory results published in PMC7544158 (Nature structural & molecular biology, 2020).
Read-outs that look alike come from different tables or passages of the source. Where no end group is shown, it is not given here. The star is where a group is joined. FITC = O=C1OC2(c3ccc(O)cc3Oc3cc(O)ccc32)c2ccc(NC(=S)*)cc21

Columns and labels:
Experiment in all cases: fluorescence polarisation
[1] = biological target: T1, BFL-1ΔC C55 (N-His6 BFL-1ΔC (1–151) bearing C4S/C19S mutations) (human, UniProt Q16548 1-151, C4S | C19S)
T1 sequence (looked up): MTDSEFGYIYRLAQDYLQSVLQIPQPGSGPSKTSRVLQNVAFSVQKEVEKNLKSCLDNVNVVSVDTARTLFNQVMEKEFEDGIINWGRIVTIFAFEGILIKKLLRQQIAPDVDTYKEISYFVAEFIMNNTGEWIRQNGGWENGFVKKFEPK

[2] = biological target: T1, BFL-1ΔC C55 (N-His6 BFL-1ΔC (1–151) …); remark: listed apart in the source
[3] = biological target: T1, BFL-1ΔC C55 (N-His6 BFL-1ΔC (1–151) …); remark: listed apart in the source
[4] = biological target: T1, BFL-1ΔC C55 (N-His6 BFL-1ΔC (1–151) …); remark: listed apart in the source
[5] = biological target: T1, BFL-1ΔC C55 (N-His6 BFL-1ΔC (1–151) …); remark: listed apart in the source

Kd [1]: 1.6 nM | Kd [2]: 12.3 nM | Kd [3]: 24.3 nM | Kd [4]: 3.3 nM | Kd [5]: 18.4 nM
Binder: {FITC}-DIIRNIARHLAQVGDSMDRSI [FITC-BID BH3 peptide]
